Reference: patent publication US20260069689A1 (Regeneron, published 2026)

Assays:
[1] = target: SARS-COV-2 RBD-MMH (SARS-CoV-2); test: SPR 37C
[2] = target: SARS-COV-2 RBD-MMH (SARS-CoV-2); test: SPR 37C, run with dissociation at pH 5.0
[3] = target: SARS-COV-2 RBD-MMH (SARS-CoV-2); test: SPR 37C, run with dissociation at pH 7.4
[4] = target: human FcγR3a 176Val allotype receptor (human, UniProt P08637 17-254); test: cell-based or functional assay

Row | Binder | t½ Ratio of pH 7.4 to pH 5.0 [1] | RBD.mmh Bound at pH 7.4 (RU) [2] [RU] | koff [2] [s⁻¹] | t½ [2] [min] | RBD.mmh Bound at pH 7.4 (RU) [3] [RU] | koff [3] [s⁻¹] | EC50 (M), Jurkat/CD20/spike [4] [M] | Fold induction, Jurkat CD20 [4] [fold] | Fold induction, Jurkat/CD20/spike [4] [fold]
1 | mAb15161 (antibody, V domains shown) VH: EVQLVESGGGLVQPGGSLRLSCAASGFTFSSYEMNWVRQAPGKGLEWVSYISSSGSILYYADSVKGRFTASRDNAKNSLYLQMNSLRAEDTGVYYCARREYQLLRPFEFWGQGTLVTVSS VL: not shown | 0.9 | 51.4 | 0.00098 | 11.8 | 39.8 | 0.00113 | – | – | –
2 | mAb15159 (antibody, V domains shown) VH: EVQLVESGGGLVQPGGSLRLSCAASGITVSSNYMTWVRQAPGKGLEWVSLIYSGGSTFYADSVRGRFTISRDNSKNTLYLQMNSLRAEDTAVYYCARDLVVYGMDVWGQGTTVTVSS VL: DIQLTQSPSSLSASVGDRVTITCRASQGISSYLAWYQQKPGKAPKLLIYAASTLQSGVPSRFSGSGSGTDFTLTISSLQPEDFATYYCQHLNSDPHTFGQGTKLEIKR | 1.9 | 45.5 | 0.000429 | 27 | 31.9 | 0.000231 | – | – | –
3 | mAb15170 (antibody, V domains shown) VH: EVQLVESGGGLVQPGGSLRLSCAATGITVSSNYMSWVRQAPGKGLEWVSLIYSGGSTFYADSVKGRFTISRHNSKNTLYLQMSSLRAEDTAVYYCARDLVDFGMDVWGQGTTVTVSS VL: DIQLTQSPSSLSASVGDRVTITCRASQGISNYLAWYQQKPGKAPKLLIYAASTLQSGVPSRFSGSGSGTDFTLTISSLQPEDFGTYYCQQLNSDSPTFGQGTKVEIKR | 0.6 | 141 | 6.62e-05 | 174 | 120 | 0.000107 | – | – | –
4 | mAb15156 (antibody, V domains shown) VH: QLQLQESGPGLVKSSETLSLTCTVSASITGSTYYWGWIRQPPGKGLEWIGSIYYSGTTYYKASLKSRVTISVDTSKNQFSLKLTSVTVADTAVYYCVSHLLGNYHKYGMDVWGQGTTVTVSS VL: not shown | 2.3 | 104 | 0.0158 | 0.7 | 92.6 | 0.00673 | – | – | –
5 | mAb14230 (antibody) heavy: not shown light: EIVLTQSPGTLSLSPGERATLSCRASQTVISTYLAWYQQKPGQSPRLLIYGASSRATGIPDRFSGSGSGTDFTLTISRLEPEDFAVYYCQQYGSSPQLTFGGGTKVEIKRTVAAPSVFIFPPSDEQLKSGTASVVCLLNNFYPREAKVQWKVDNALQSGNSQESVTEQDSKDSTYSLSSTLTLSKADYEKHKVYACEVTHQGLSSPVTKSFNRGEC | 1.2 | 60.3 | 0.00924 | 1.3 | 67.6 | 0.00771 | 1.79e-10 | 1.1 | 9.8
6 | mAb15164 (antibody, V domains shown) VH: EVQLVESGGGLVQPGGSLRLSCAASGFAVSSNYMTWVRQAPGKGLEWVATIYSGDSTYYADSVKGRFTISRHNSKNTLSLQMNSLRADDTAIYYCARLSGVLSGTYNGAFDIWGQGTMVTVSS VL: QSALTQPASVSGSPGQSITISCTGTSSDFGNYNIVSWYQQHPGQAPKVMIYEGNKRPSGVSNRFSGSKSGHTASLTISGLQAEDEADYYCSSYAGSSTWVFGGGTKLTVLG | 0.9 | 159 | 0.002 | 5.8 | 145 | 0.00226 | – | – | –
7 | mAb15166 (antibody, V domains shown) VH: EVQLVESGGGLVQPGGSLRLSCAASGFTVTSNYMSWVRQAPGKGLEWVSAIYSGESTYYADSVKGRFTISRDSSKNTLYLQMNSLRVEDTAVYYCASIHDYSNYVGGFDPWGQGTLVTVSS VL: QSALTQPASVSGSPGQSITISCTGPSSDFGSYNLVSWYQQHPGKAPKLMIYEGTKRPSGVSNRFSGSKSGNTASLTISGLQAEDEADYYCSSYAGSSTWVFGGGTKLTVLG | 1.2 | 60 | 0.035 | 0.3 | 65.2 | 0.03 | – | – | –
8 | mAb15165 (antibody, V domains shown) VH: EVQLVESGGGLVQPGGSLRLSCAASGFTVSSNYMSWVRQAPGKGLEWVSAIYSGDSTYYADSVKGRFTISKDNSKNTLYLQMNSLRGEDTAVYYCARLGGALQAYDGAFDYWGQGTLATVSS VL: QSALTQPASVSGSPGQSITISCTGTSSDFGSYNLVSWYQQHPGKAPKLMIYEGNKRPSGVSIRFSGSKSGNTASLTISGLQAEDEADYYCSSYAGSSTWVFGGGTKLTVLG | 0.6 | 127 | 0.000973 | 11.9 | 110 | 0.00164 | – | – | –
9 | mAb13458 (antibody) heavy: not shown light: AIQMTQSPSSLSASVGDRVTITCRASQDIRNDLGWYQQKPGKAPKLLIYSASSLQTGVPSRFSGSGSGTDFTLTISSLHPEDFATYYCLQDYWYTWTFGQGTKVEIKRTVAAPSVFIFPPSDEQLKSGTASVVCLLNNFYPREAKVQWKVDNALQSGNSQESVTEQDSKDSTYSLSSTLTLSKADYEKHKVYACEVTHQGLSSPVTKSFNRGEC | 2.5 | 90.9 | 0.00401 | 2.9 | 96.5 | 0.00161 | 1.43e-10 | 1.2 | 10.2
10 | mAb15163 (antibody, V domains shown) VH: EVQLVETGGGLIQPGESLRLSCAASGFIVSTNYMNWVRQAPGKGLEWVSVIYRGGSTYYADSVKGRFTISRDNSKNTLFLQMNSLRAEDTAVYYCARGHEDFDYDTPASGAFDIWGQGTMVTVSS VL: QSALTQPPSASGSPGQSVTISCTGTSSDVGGHNYVSWYQQHPGKAPKVMIYEVSKRPSGVPDRFSGSKSGNTASLTVSGLQAEDEADYYCSSYAGSNKFVFGTGTKVTVLG | 7.6 | 83.2 | 0.00377 | 3.1 | 81.9 | 0.000494 | – | – | –
11 | mAb15162 (antibody, V domains shown) VH: EVQLVETGGGLIQPGGSLRLSCAASEFIVSRNYMSWVRQAPGKGLEWVSLIYSGGSTYYADSVKGRFTISRDNSKNILYLQMNSLRAEDTAVYYCARDRGGISDYWGQGTLVTVSS VL: DIQMTQSPSSLSASVGDRVTITCQASQDINKYLNWFQQKPGKAPKLLIYDASNLETGVPSRFSGSGSGTDFTFTISSLQPEDIATYYCQQYDNLPRTFGQGTKLEIKR | 1.8 | 131 | 0.0054 | 2.1 | 116 | 0.003 | – | – | –
12 | mAb15151 (antibody, V domains shown) VH: QVQLVESGGGVVQPGRSLRLSCAASGFVFNSYGMHWVRQAPGKGLEWVAVLWYEGSKNYYADSVKGRFTISRDNSKNTLYLQMNSLRAEDTAVYYCARHGSGSFFGYYLDYWGQGTLVTVSS VL: DIQMTQSPSSLSASVGDRVTITCRASHNINDFLNWYQQKPGKAPRLLIYAASSLQSGVPSRFSGSGSGTDFTLTISSLQPEDFATYYCQESYTTPPTFGQGTKLEIKR | 0.6 | 231 | 0.00439 | 2.6 | 219 | 0.0068 | – | – | –
13 | mAb15160 (antibody, V domains shown) VH: EVQLVESGGGLVQPGGSLRLSCSASGFTFSRYAMYWVRQAPGKGLEYVSAISSDGGSTYDADSVKGRFTISRANSKNTLYLQMSSLRAEDTAVYYCVKGLRELLYYYYGMDVWGQGTTVTVSS VL: DIQMTQSPSSLSASVGDRVTITCRAGQSISSFLNWYQQKPGKAPKLLIYAASSLQSGVPSRFSGSGSGTDFTLTISSLQPEDFATYYCQQSYITPFTFGPGTKVDIKR | 1 | 61.3 | 0.00228 | 5.1 | 58.2 | 0.00218 | – | – | –
14 | mAb15158 (antibody, V domains shown) VH: EVQLVESGGGLVQPGGSLRLSCAASGFSFSSNWMSWVRQAPGKGLEWVGNINQDGSEKYYVDSVEGRFTISRDNAKKSLYLQMNSLRAEDTAVYYCARDLGVLWFGDFVDWGQGALVTVSS VL: DIQMTQSPSSLSASVGDRVTITCRASQAISNSLAWYQQKPGKAPKLLLYAASTLESGVPSRFSGSGSGTDYTLTISSLQPEDFATYYCLQYYGSPRTFGQGTKVEIKR | 0.3 | 122 | 9.7e-05 | 119 | 111 | 0.00031 | – | – | –
15 | mAb15157 (antibody, V domains shown) VH: EVQLVESGGALVQPGGSLRLSCAASGFPFTIYAMTWVRQAPGKGLEWVSVITGSGDSTYYADSVKGRFTISRDNSKNTLYLQMNSLRAEDTAVYYCVKTGEGFFYYYYGMDVWGQGTTVTVSS VL: QSVLTQPPSVSAAPGQKVTISCSGSSSNIGNSYISWYQQLPGTAPKLLIYVNNKRPSGIPDRFSGSKSGTSATLGITGLQTGDEADYYCGTWDSSLSAGVFGSGTKVTVLG | 1.7 | 108 | 0.00702 | 1.6 | 106 | 0.00405 | – | – | –
16 | mAb15150 (antibody, V domains shown) VH: EVQLVETGGGLIQPGGSLRLSCAAPGFIVSSNYMSWVRQAPGKGLEWVSLLYPGGSTYYADSVKGRFTISRDNSKNTLYLQMNSLRADDTAVYYCARVLPIVEDHFDYWGQGTLVTVSS VL: DIQLTQSPSFLSASVGDRVTITCRASQGMSSYLAWYQKKPGKAPKLLIYGATILQSGVPSRFSGSGSGTEFTLTISSLQPEDFATYYCQQLNSDPLYMYTFGQGTKLEIKR | 0.1 | 92.6 | 1e-05 | 1160 | 87.8 | 0.000112 | – | – | –
